# Assay results from IntAct's records for PubMed 22364545.
# B1: Fibroblast growth factor 14 (Homo sapiens), Q92915-2 (parent)
# chain: MVKPVPLFRRTDFKLLLCNHKDLFFLRVSKLLDCFSPKSMWFLWNIFSKGTHMLQCLCGKSLKKNKNPTDPQLKGIVTRLYCRQGYYLQMHPDGALDGTKDDSTNSTLFNLIPVGLRVVAIQGVKTGLYIAMNGEGYLYPSELFTPECKFKESVFENYYVIYSSMLYRQQESGRAWFLGLNKEGQAMKGNRVKKTKPAAHFLPKPLEVAMYREPSLHDVGETVPKPGVTPSKSTSASAIMNGGKPVNKSKTT
# Variants of: B1
# Details: with scn8a_human SCN8A
row,Variant,effect of a mutation on the interaction
1,Y158N;V160N,decreasing interaction strength
